Laboratory results taken from article PMC7343536 (Cell, 2017).
Like-named read-outs stand apart in the source and are kept apart here. No end group written: not given here.

Key:
[1] = biological target: T1, Ssb2 (purified recombinant) (S. cerevisiae, UniProt P40150 1-613); experiment: stopped-flow fluorescence, peptide release
[2] = biological target: T1, Ssb2 (purified recombinant); experiment: stopped-flow fluorescence, peptide release; remark: listed apart in the source

T1 sequence (P40150 whole entry): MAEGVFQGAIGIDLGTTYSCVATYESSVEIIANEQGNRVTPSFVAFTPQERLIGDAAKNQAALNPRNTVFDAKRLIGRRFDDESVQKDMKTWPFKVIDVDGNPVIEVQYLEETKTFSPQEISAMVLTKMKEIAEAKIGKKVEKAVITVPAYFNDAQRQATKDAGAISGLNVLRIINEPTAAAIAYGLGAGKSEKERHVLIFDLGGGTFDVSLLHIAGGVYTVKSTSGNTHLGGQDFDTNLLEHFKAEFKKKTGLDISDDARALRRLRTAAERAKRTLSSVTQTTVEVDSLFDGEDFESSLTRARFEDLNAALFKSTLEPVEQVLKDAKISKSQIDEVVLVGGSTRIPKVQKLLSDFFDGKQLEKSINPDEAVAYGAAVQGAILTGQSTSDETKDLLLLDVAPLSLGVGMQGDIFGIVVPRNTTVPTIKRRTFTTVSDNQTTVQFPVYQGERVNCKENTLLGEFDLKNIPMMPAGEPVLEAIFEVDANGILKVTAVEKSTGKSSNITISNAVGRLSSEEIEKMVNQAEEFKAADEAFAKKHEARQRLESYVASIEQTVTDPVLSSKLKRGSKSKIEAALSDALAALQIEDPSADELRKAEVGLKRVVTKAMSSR

B1: IAANS labeled peptide substrate σ32-Q132-Q144-C (peptide)
peptide: QRKLFFNLRKTKQC
modifications: not fully specified (residue 14); also: labeled with IAANS, site not given here
half-life of the complex [1]: 7.7 ± 6.7 min
half-life of the complex [2]: 3.9 ± 0.2 h
